T1: human calcitonin receptor (human, UniProt P30988 25-474)
T1 construct: whole, on cells; Assayed as cell membranes of BHK tk'ts 13 cells stably transfected with the human calcitonin receptor (Assay VII); also called hCTR; hCT
T1 sequence (looked up): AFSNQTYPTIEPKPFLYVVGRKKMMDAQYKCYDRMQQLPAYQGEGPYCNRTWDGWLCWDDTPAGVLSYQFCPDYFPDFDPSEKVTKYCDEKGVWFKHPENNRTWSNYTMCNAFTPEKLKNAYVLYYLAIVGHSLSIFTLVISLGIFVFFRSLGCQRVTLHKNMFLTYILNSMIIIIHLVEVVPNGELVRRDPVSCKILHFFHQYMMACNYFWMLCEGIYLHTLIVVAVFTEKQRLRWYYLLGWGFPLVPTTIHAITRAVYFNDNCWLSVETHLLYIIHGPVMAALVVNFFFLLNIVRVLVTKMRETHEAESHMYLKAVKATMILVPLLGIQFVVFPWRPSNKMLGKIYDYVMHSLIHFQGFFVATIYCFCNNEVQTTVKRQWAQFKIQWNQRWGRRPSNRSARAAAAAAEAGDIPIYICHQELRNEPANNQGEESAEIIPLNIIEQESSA

B1: N^ε1-[(4S)-4-carboxy-4-(19-carboxynonadecanoylamino)butanoyl]-[His14,Arg17,Pro21,Pro27,Pro31]-h-amylin (peptide)
peptide: K([γGlu-C20 diacid])CNTATCATQRLAHFLRHSSPNFGAIPSSTPVGSNTY-NH2
modifications: disulfide 2-7; N-terminus assumed
SMILES: CC[C@H](C)[C@H](NC(=O)[C@H](C)NC(=O)CNC(=O)[C@H](Cc1ccccc1)NC(=O)[C@H](CC(N)=O)NC(=O)[C@@H]1CCCN1C(=O)[C@H](CO)NC(=O)[C@H](CO)NC(=O)[C@H](Cc1c[nH]cn1)NC(=O)[C@H](CCCNC(=N)N)NC(=O)[C@H](CC(C)C)NC(=O)[C@H](Cc1ccccc1)NC(=O)[C@H](Cc1c[nH]cn1)NC(=O)[C@H](C)NC(=O)[C@H](CC(C)C)NC(=O)[C@H](CCCNC(=N)N)NC(=O)[C@H](CCC(N)=O)NC(=O)[C@@H](NC(=O)[C@H](C)NC(=O)[C@@H]1CSSC[C@H](NC(=O)[C@@H](N)CCCCNC(=O)CC[C@H](NC(=O)CCCCCCCCCCCCCCCCCCC(=O)O)C(=O)O)C(=O)N[C@@H](CC(N)=O)C(=O)N[C@@H]([C@@H](C)O)C(=O)N[C@@H](C)C(=O)N[C@@H]([C@@H](C)O)C(=O)N1)[C@@H](C)O)C(=O)N1CCC[C@H]1C(=O)N[C@@H](CO)C(=O)N[C@@H](CO)C(=O)N[C@H](C(=O)N1CCC[C@H]1C(=O)N[C@H](C(=O)NCC(=O)N[C@@H](CO)C(=O)N[C@@H](CC(N)=O)C(=O)N[C@H](C(=O)N[C@@H](Cc1ccc(O)cc1)C(N)=O)[C@@H](C)O)C(C)C)[C@@H](C)O
notes: also called compound 62
B2: N^ε1-[(4S)-4-carboxy-4-[[(4S)-4-carboxy-4-(19-carboxynonadecanoylamino)butanoyl]amino]butanoyl]-[Glu14,Arg17,Pro21,Pro27,Arg34]-h-amylin (peptide)
peptide: K([γGlu-γGlu-C20 diacid])CNTATCATQRLAEFLRHSSPNFGAIPSSTNVGRNTY-NH2
modifications: disulfide 2-7; N-terminus assumed
SMILES: CC[C@H](C)[C@H](NC(=O)[C@H](C)NC(=O)CNC(=O)[C@H](Cc1ccccc1)NC(=O)[C@H](CC(N)=O)NC(=O)[C@@H]1CCCN1C(=O)[C@H](CO)NC(=O)[C@H](CO)NC(=O)[C@H](Cc1c[nH]cn1)NC(=O)[C@H](CCCNC(=N)N)NC(=O)[C@H](CC(C)C)NC(=O)[C@H](Cc1ccccc1)NC(=O)[C@H](CCC(=O)O)NC(=O)[C@H](C)NC(=O)[C@H](CC(C)C)NC(=O)[C@H](CCCNC(=N)N)NC(=O)[C@H](CCC(N)=O)NC(=O)[C@@H](NC(=O)[C@H](C)NC(=O)[C@@H]1CSSC[C@H](NC(=O)[C@@H](N)CCCCNC(=O)CC[C@H](NC(=O)CC[C@H](NC(=O)CCCCCCCCCCCCCCCCCCC(=O)O)C(=O)O)C(=O)O)C(=O)N[C@@H](CC(N)=O)C(=O)N[C@@H]([C@@H](C)O)C(=O)N[C@@H](C)C(=O)N[C@@H]([C@@H](C)O)C(=O)N1)[C@@H](C)O)C(=O)N1CCC[C@H]1C(=O)N[C@@H](CO)C(=O)N[C@@H](CO)C(=O)N[C@H](C(=O)N[C@@H](CC(N)=O)C(=O)N[C@H](C(=O)NCC(=O)N[C@@H](CCCNC(=N)N)C(=O)N[C@@H](CC(N)=O)C(=O)N[C@H](C(=O)N[C@@H](Cc1ccc(O)cc1)C(N)=O)[C@@H](C)O)C(C)C)[C@@H](C)O
notes: also called compound 88
B3: N^ε1-[(4S)-4-carboxy-4-[[(4S)-4-carboxy-4-(19-carboxynonadecanoylamino)butanoyl]amino]butanoyl]-[Glu14,Arg17,Pro21,Pro27,His34]-h-amylin (peptide)
peptide: K([γGlu-γGlu-C20 diacid])CNTATCATQRLAEFLRHSSPNFGAIPSSTNVGHNTY-NH2
modifications: disulfide 2-7; N-terminus assumed
SMILES: CC[C@H](C)[C@H](NC(=O)[C@H](C)NC(=O)CNC(=O)[C@H](Cc1ccccc1)NC(=O)[C@H](CC(N)=O)NC(=O)[C@@H]1CCCN1C(=O)[C@H](CO)NC(=O)[C@H](CO)NC(=O)[C@H](Cc1c[nH]cn1)NC(=O)[C@H](CCCNC(=N)N)NC(=O)[C@H](CC(C)C)NC(=O)[C@H](Cc1ccccc1)NC(=O)[C@H](CCC(=O)O)NC(=O)[C@H](C)NC(=O)[C@H](CC(C)C)NC(=O)[C@H](CCCNC(=N)N)NC(=O)[C@H](CCC(N)=O)NC(=O)[C@@H](NC(=O)[C@H](C)NC(=O)[C@@H]1CSSC[C@H](NC(=O)[C@@H](N)CCCCNC(=O)CC[C@H](NC(=O)CC[C@H](NC(=O)CCCCCCCCCCCCCCCCCCC(=O)O)C(=O)O)C(=O)O)C(=O)N[C@@H](CC(N)=O)C(=O)N[C@@H]([C@@H](C)O)C(=O)N[C@@H](C)C(=O)N[C@@H]([C@@H](C)O)C(=O)N1)[C@@H](C)O)C(=O)N1CCC[C@H]1C(=O)N[C@@H](CO)C(=O)N[C@@H](CO)C(=O)N[C@H](C(=O)N[C@@H](CC(N)=O)C(=O)N[C@H](C(=O)NCC(=O)N[C@@H](Cc1c[nH]cn1)C(=O)N[C@@H](CC(N)=O)C(=O)N[C@H](C(=O)N[C@@H](Cc1ccc(O)cc1)C(N)=O)[C@@H](C)O)C(C)C)[C@@H](C)O
notes: also called compound 87
B4: N^ε1-[(4S)-4-carboxy-4-[[(4S)-4-carboxy-4-(19-carboxynonadecanoylamino)butanoyl]amino]butanoyl]-[Arg17,Pro21,Pro27,His34]-h-amylin (peptide)
peptide: K([γGlu-γGlu-C20 diacid])CNTATCATQRLANFLRHSSPNFGAIPSSTNVGHNTY-NH2
modifications: disulfide 2-7; N-terminus assumed
SMILES: CC[C@H](C)[C@H](NC(=O)[C@H](C)NC(=O)CNC(=O)[C@H](Cc1ccccc1)NC(=O)[C@H](CC(N)=O)NC(=O)[C@@H]1CCCN1C(=O)[C@H](CO)NC(=O)[C@H](CO)NC(=O)[C@H](Cc1c[nH]cn1)NC(=O)[C@H](CCCNC(=N)N)NC(=O)[C@H](CC(C)C)NC(=O)[C@H](Cc1ccccc1)NC(=O)[C@H](CC(N)=O)NC(=O)[C@H](C)NC(=O)[C@H](CC(C)C)NC(=O)[C@H](CCCNC(=N)N)NC(=O)[C@H](CCC(N)=O)NC(=O)[C@@H](NC(=O)[C@H](C)NC(=O)[C@@H]1CSSC[C@H](NC(=O)[C@@H](N)CCCCNC(=O)CC[C@H](NC(=O)CC[C@H](NC(=O)CCCCCCCCCCCCCCCCCCC(=O)O)C(=O)O)C(=O)O)C(=O)N[C@@H](CC(N)=O)C(=O)N[C@@H]([C@@H](C)O)C(=O)N[C@@H](C)C(=O)N[C@@H]([C@@H](C)O)C(=O)N1)[C@@H](C)O)C(=O)N1CCC[C@H]1C(=O)N[C@@H](CO)C(=O)N[C@@H](CO)C(=O)N[C@H](C(=O)N[C@@H](CC(N)=O)C(=O)N[C@H](C(=O)NCC(=O)N[C@@H](Cc1c[nH]cn1)C(=O)N[C@@H](CC(N)=O)C(=O)N[C@H](C(=O)N[C@@H](Cc1ccc(O)cc1)C(N)=O)[C@@H](C)O)C(C)C)[C@@H](C)O
notes: also called compound 86
B5: N^ε21-[(4S)-4-carboxy-4-[[(4S)-4-carboxy-4-(19-carboxynonadecanoylamino)butanoyl]amino]butanoyl]-[Asp14,Arg17,Lys21,Pro27,Asp35]-h-amylin (peptide)
peptide: KCNTATCATQRLADFLRHSSK([γGlu-γGlu-C20 diacid])NFGAIPSSTNVGSDTY-NH2
modifications: disulfide 2-7; N-terminus assumed
SMILES: CC[C@H](C)[C@H](NC(=O)[C@H](C)NC(=O)CNC(=O)[C@H](Cc1ccccc1)NC(=O)[C@H](CC(N)=O)NC(=O)[C@H](CCCCNC(=O)CC[C@H](NC(=O)CC[C@H](NC(=O)CCCCCCCCCCCCCCCCCCC(=O)O)C(=O)O)C(=O)O)NC(=O)[C@H](CO)NC(=O)[C@H](CO)NC(=O)[C@H](Cc1c[nH]cn1)NC(=O)[C@H](CCCNC(=N)N)NC(=O)[C@H](CC(C)C)NC(=O)[C@H](Cc1ccccc1)NC(=O)[C@H](CC(=O)O)NC(=O)[C@H](C)NC(=O)[C@H](CC(C)C)NC(=O)[C@H](CCCNC(=N)N)NC(=O)[C@H](CCC(N)=O)NC(=O)[C@@H](NC(=O)[C@H](C)NC(=O)[C@@H]1CSSC[C@H](NC(=O)[C@@H](N)CCCCN)C(=O)N[C@@H](CC(N)=O)C(=O)N[C@@H]([C@@H](C)O)C(=O)N[C@@H](C)C(=O)N[C@@H]([C@@H](C)O)C(=O)N1)[C@@H](C)O)C(=O)N1CCC[C@H]1C(=O)N[C@@H](CO)C(=O)N[C@@H](CO)C(=O)N[C@H](C(=O)N[C@@H](CC(N)=O)C(=O)N[C@H](C(=O)NCC(=O)N[C@@H](CO)C(=O)N[C@@H](CC(=O)O)C(=O)N[C@H](C(=O)N[C@@H](Cc1ccc(O)cc1)C(N)=O)[C@@H](C)O)C(C)C)[C@@H](C)O
notes: also called compound 59
B6: N^ε1-[(4S)-4-carboxy-4-[[(4S)-4-carboxy-4-(19-carboxynonadecanoylamino)butanoyl]amino]butanoyl]-[Glu14,Arg17,Pro21,Pro27,Arg35]-h-amylin (peptide)
peptide: K([γGlu-γGlu-C20 diacid])CNTATCATQRLAEFLRHSSPNFGAIPSSTNVGSRTY-NH2
modifications: disulfide 2-7; N-terminus assumed
SMILES: CC[C@H](C)[C@H](NC(=O)[C@H](C)NC(=O)CNC(=O)[C@H](Cc1ccccc1)NC(=O)[C@H](CC(N)=O)NC(=O)[C@@H]1CCCN1C(=O)[C@H](CO)NC(=O)[C@H](CO)NC(=O)[C@H](Cc1c[nH]cn1)NC(=O)[C@H](CCCNC(=N)N)NC(=O)[C@H](CC(C)C)NC(=O)[C@H](Cc1ccccc1)NC(=O)[C@H](CCC(=O)O)NC(=O)[C@H](C)NC(=O)[C@H](CC(C)C)NC(=O)[C@H](CCCNC(=N)N)NC(=O)[C@H](CCC(N)=O)NC(=O)[C@@H](NC(=O)[C@H](C)NC(=O)[C@@H]1CSSC[C@H](NC(=O)[C@@H](N)CCCCNC(=O)CC[C@H](NC(=O)CC[C@H](NC(=O)CCCCCCCCCCCCCCCCCCC(=O)O)C(=O)O)C(=O)O)C(=O)N[C@@H](CC(N)=O)C(=O)N[C@@H]([C@@H](C)O)C(=O)N[C@@H](C)C(=O)N[C@@H]([C@@H](C)O)C(=O)N1)[C@@H](C)O)C(=O)N1CCC[C@H]1C(=O)N[C@@H](CO)C(=O)N[C@@H](CO)C(=O)N[C@H](C(=O)N[C@@H](CC(N)=O)C(=O)N[C@H](C(=O)NCC(=O)N[C@@H](CO)C(=O)N[C@@H](CCCNC(=N)N)C(=O)N[C@H](C(=O)N[C@@H](Cc1ccc(O)cc1)C(N)=O)[C@@H](C)O)C(C)C)[C@@H](C)O
notes: also called compound 89

Numbered stars: 1 amine (or outer) side, 2 acyl side, 3 side chain; on linkers, the order of the positions; unused ones are H or OH. Bridge positions count the residues as written; N and C are the ends. Side chains are listed from the residue outwards. Ends that are not written are not given here. * marks the point of attachment. C20 diacid = O=C(O)CCCCCCCCCCCCCCCCCCC(=O)*; γGlu = O=C(O)[C@H](CCC(=O)[*:2])N[*:1]

The target of one test is T1, human calcitonin receptor. In words: IC50 at hCTR divided by IC50 at hAmylin-R (SPA competition assays V and VII). Summed up:
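Scintillation proximity competition binding on cell membranes at 35 ng/μL with SPA beads, in 50 mM Hepes pH 7.4, 1 mM CaCl2, 5 mM MgCl₂, 0.1% OA, 0.02% Tween20. Incubated 120 min at 25° C with shaking. IC₅₀ from one-site competition fit.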
Turning to B1, the “Ratio hCT/hAmylin binding” value turned out to be 63.
Still for that read-out and setting: next, B2: 46.5; B3: 35.6.
Same read-out and setting: next, B4: 159.
The same measure, in the same setting: in the case of B5 it was 4.3; in that of B6, 28.

A further test concerns the target T1, human calcitonin receptor. In words: SPA competition vs 125I-calcitonin, membranes of BHK cells with human calcitonin receptor (Assay VII). Summed up:
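BHK hCTR membranes 35 ng/μL + SPA beads 0.05 mg/well; buffer 50 mM Hepes pH 7.4, 1 mM CaCl2, 5 mM MgCl₂, 0.1% OA, 0.02% Tween20. 120 min, 25° C., shaking. Scintillation count; IC50 by one-site binding competition.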
The IC50 is the concentration at which inhibition is half-maximal. Turning to B1, the IC50 turned out to be 6.17 nM.
The same measure, in the same setting: next, B2: 34.9 nM.
Same read-out and setting: next, B3: 22.5 nM.
The same measure, in the same setting: in the case of B4 it was 133 nM; in that of B5, 5.14 nM; in that of B6, 32.5 nM.

(Values after patent US20140087995A1 (published 2014).)
